The record followed here is article PMC4944944 (2016).

This assay has as its target F-actin prepared from muscle actin (Oryctolagus cuniculus (Rabbit), UniProt P68135). As to the kind of experiment: F-actin co-sedimentation.

B1: Flag::mCherry::CHDP-1 (protein)
chain: MSEEIKKIEEVAEQDKAPKVPTTEPPVDVPAPVTEEAPKVEEAVAEIAAPAAAEGETATAAAAAPEEKKKSGGVARRFTFNKRWGKHRDAEASTPKEPEAPKDPKEDVLGWIAQQIPQAVHKANYQVIDWVQKTAIPEEGERKTIPGKDQATTRNQFIGFFKDGDVLAKLANALEPGAVEVAAAEENADAAAQKEVQKKNIDAFGAWAQKTLGTEAAPVTNEDLLEKGKAGYTAVFQTLWQLGVQAKEKFDKEGFNVDTIVQLANSVVKSGLLTTILGFFRRNRQAAAAVEEPKDETAAAEGAGEAKEEGATGEVADTADEPVAVKQETSAPAAVAAN
As to B1, the binding result was “no binding”.
